± gives the standard error. For some of these results: Variants at the floor of the assay were thinned out.
B1: glmS ribozyme (parent)
chain: AUAAAAGCGCCAGAACUACAGAAAUGUAGUUGACGAGGAGGAGGUUUAUCGAAUUUUCGGCGGAUGCCUCCAAA

Assays:
Conditions in all cases: with glucosamine-6-phosphate
glucosamine-6-phosphate [1] = variants of: B1; assay: kcat; higher = faster cleavage; RNA array
How it was run: (§1)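 Glucosamine-6-phosphate in HEPES/KCl/Mg(OAc)2 buffer, at 40 μM to 10 mM, was flowed over barcoded ribozyme variants transcribed in situ by E. coli RNA polymerase on sequenced MiSeq chips. Tracking was through a hybridised Cy3 probe at 37 °C. kobs, kcat and KM came from exponential decay fits and weighted Michaelis–Menten fits of normalised per-tile medians.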

glucosamine-6-phosphate [2] = variants of: B1; assay: KM; higher = weaker cofactor use; RNA array
How it was run: as §1

glucosamine-6-phosphate [3] = variants of: B1; assay: self-cleavage kobs at 40 uM GlcN6P; higher = faster cleavage; RNA array
How it was run: as §1

glucosamine-6-phosphate [4] = variants of: B1; assay: self-cleavage kobs at 160 uM GlcN6P; higher = faster cleavage; RNA array
How it was run: as §1

glucosamine-6-phosphate [5] = variants of: B1; assay: self-cleavage kobs at 640 uM GlcN6P; higher = faster cleavage; RNA array
How it was run: as §1

glucosamine-6-phosphate [6] = variants of: B1; assay: self-cleavage kobs at 2500 uM GlcN6P; higher = faster cleavage; RNA array
How it was run: as §1

glucosamine-6-phosphate [7] = variants of: B1; assay: self-cleavage kobs at 10000 uM GlcN6P; higher = faster cleavage; RNA array
How it was run: as §1

Variant | kcat (glucosamine-6-phosphate [1]) [s⁻¹] | KM (glucosamine-6-phosphate [2]) [µM] | self-cleavage kobs at 40 uM GlcN6P (glucosamine-6-phosphate [3]) [s⁻¹] | self-cleavage kobs at 160 uM GlcN6P (glucosamine-6-phosphate [4]) [s⁻¹] | self-cleavage kobs at 640 uM GlcN6P (glucosamine-6-phosphate [5]) [s⁻¹] | self-cleavage kobs at 2500 uM GlcN6P (glucosamine-6-phosphate [6]) [s⁻¹] | self-cleavage kobs at 10000 uM GlcN6P (glucosamine-6-phosphate [7]) [s⁻¹]
A53C U55A | 0.00829 ± 0.0024 | 2150 ± 840 | 0.000204 ± 1.9e-05 | 0.000453 ± 6.9e-05 | 0.00172 ± 0.00021 | 0.00411 ± 0.00049 | 0.00772 ± 0.00094
A14U C58U | 0.000114 ± 1.5e-05 | 2600 ± 960 |  |  |  | 5.89e-05 ± 1.1e-05 | 9.01e-05 ± 1e-05
G43A C71U | < 1e-05 |  | < 1e-05 |  |  |  | 
A42G U65G | 0.00591 ± 0.00097 | 4220 ± 930 | 5.66e-05 ± 1.2e-05 | 0.000279 ± 7.4e-05 | 0.000708 ± 0.00015 | 0.00211 ± 0.00033 | 0.00436 ± 0.00084
G29C C50U | < 1e-05 |  |  | < 1e-05 |  |  | 
U46C U69A | 0.000242 ± 4.8e-05 | 686 ± 310 |  | 5.58e-05 ± 2.2e-05 | 9.77e-05 ± 2.8e-05 | 0.000199 ± 6.1e-05 | 0.000243 ± 6.5e-05
U46A C71G | 0.00042 ± 3.7e-05 | 2020 ± 370 |  | 4.33e-05 ± 1.2e-05 | 9.39e-05 ± 1.2e-05 | 0.00025 ± 3.5e-05 | 0.000346 ± 3.2e-05
U55C G60A | 1.48e-05 ± 1.8e-06 |  | < 1e-05 |  |  |  | 
U47A C61U | 2.03e-05 ± 6.6e-06 |  | < 1e-05 |  |  |  | 
U47G A48G | 8.61e-05 ± 8.6e-06 |  |  |  | 4.31e-05 ± 1.6e-05 | 8.59e-05 ± 1.7e-05 | 7.67e-05 ± 1.3e-05
A15C G37A | 0.000686 ± 9.5e-05 | 4650 ± 1200 |  |  | 9.31e-05 ± 1.5e-05 | 0.000226 ± 3.7e-05 | 0.000471 ± 4.5e-05
A12C C67U | 0.00763 ± 0.0029 | 2210 ± 1000 | 0.000156 ± 1.3e-05 | 0.000508 ± 5.5e-05 | 0.00137 ± 0.0002 | 0.00322 ± 0.00048 | 0.00923 ± 0.0012
C11A U47A | 8.3e-05 ± 1.6e-05 |  |  |  |  | 5.35e-05 ± 2.1e-05 | 6.56e-05 ± 1.8e-05
A12G A42G | 0.00162 ± 0.0003 | 4880 ± 1300 |  | 3.49e-05 ± 1.3e-05 | 0.000189 ± 1.9e-05 | 0.00064 ± 7.7e-05 | 0.00103 ± 0.00012
G37C G51A | < 1e-05 |  |  | < 1e-05 |  |  | 
G37C C50U | < 1e-05 |  |  |  |  |  | < 1e-05
A14G G32C | 0.000222 ± 9e-06 | 1900 ± 190 |  |  | 5.72e-05 ± 1.5e-05 | 0.000115 ± 4.1e-05 | 0.000188 ± 2.8e-05
U30G U54G | 0.00551 ± 0.002 |  | 0.000203 ± 4.6e-05 | 0.000615 ± 0.0001 | 0.00144 ± 0.00032 | 0.00254 ± 0.00053 | 0.00743 ± 0.0011

Variant | kcat (glucosamine-6-phosphate [1]) [s⁻¹] | KM (glucosamine-6-phosphate [2]) [µM] | self-cleavage kobs at 40 uM GlcN6P (glucosamine-6-phosphate [3]) [s⁻¹] | self-cleavage kobs at 160 uM GlcN6P (glucosamine-6-phosphate [4]) [s⁻¹] | self-cleavage kobs at 640 uM GlcN6P (glucosamine-6-phosphate [5]) [s⁻¹] | self-cleavage kobs at 2500 uM GlcN6P (glucosamine-6-phosphate [6]) [s⁻¹] | self-cleavage kobs at 10000 uM GlcN6P (glucosamine-6-phosphate [7]) [s⁻¹]
C10U A12U | 0.000153 ± 2.3e-05 | 3200 ± 1200 |  |  | 1.92e-05 ± 6e-06 | 8.4e-05 ± 1.2e-05 | 0.000113 ± 9e-06
A12G C16G | 0.000144 ± 1.3e-05 | 7160 ± 1300 |  |  |  | 3.92e-05 ± 1.4e-05 | 8.35e-05 ± 1.2e-05
C16U G63A | < 1e-05 |  | < 1e-05 |  |  | < 1e-05 | < 1e-05
A39C A42U | 0.000187 ± 4e-05 |  |  |  |  | 0.000135 ± 2.9e-05 | 0.000143 ± 2.2e-05
U31C G32C | 0.000493 ± 0.00011 | 4480 ± 2100 |  |  |  | 0.00017 ± 2.6e-05 | 0.000344 ± 3.5e-05
U31G G37U C68A | 2.76e-05 ± 6.9e-06 |  |  |  |  |  | 
U30C A33U | 1.74e-05 ± 7.2e-07 | 944 ± 280 |  |  |  |  | 
G29A G32U | 0.00277 ± 0.00084 |  |  |  | 7.58e-05 ± 1.8e-05 | 0.000325 ± 5.7e-05 | 0.000888 ± 0.00014
U31G U54C | 0.014 ± 0.0061 |  | 0.000233 ± 4e-05 | 0.000516 ± 0.00013 | 0.00289 ± 0.00053 | 0.00559 ± 0.00098 | 0.0136 ± 0.0038
A53G U56G | 0.0121 ± 0.004 | 1150 ± 530 | 0.000497 ± 5.8e-05 | 0.00116 ± 0.00024 | 0.00411 ± 0.00066 | 0.00635 ± 0.0012 | 0.0161 ± 0.0025
G32A C61U | < 1e-05 |  |  | < 1e-05 | < 1e-05 |  | 
G59U C71U | 5.45e-05 ± 7.2e-06 |  |  |  |  | 2.79e-05 ± 1.3e-05 | 4.88e-05 ± 8.4e-06
A48U C50G C67A C68U | 1.99e-05 ± 2.7e-06 |  |  |  |  |  | 
U54G U55C | 0.00147 ± 0.0003 | 670 ± 280 |  | 0.00036 ± 8.1e-05 | 0.000646 ± 9.5e-05 | 0.0012 ± 0.00027 | 0.00156 ± 0.00037
G37A G44U | 8.09e-05 ± 2.1e-05 |  |  | < 1e-05 |  | 4.71e-05 ± 9.1e-06 | 5.95e-05 ± 2.3e-05
G40A U46C | 0.00192 ± 0.00051 | 1280 ± 450 | 7.21e-05 ± 1.4e-05 | 0.000173 ± 3.9e-05 | 0.000699 ± 0.00012 | 0.00107 ± 0.00036 | 0.00192 ± 0.00054
A14C G29A | 0.000725 ± 5.3e-05 | 2290 ± 270 |  | 4.05e-05 ± 1.5e-05 | 0.000166 ± 2.4e-05 | 0.000389 ± 9.3e-05 | 0.00058 ± 9.2e-05

— the supplement of paper PMC7125110
